Experimental data as given in doi:10.1101/2021.09.29.461692 (bioRxiv, 2021).

Molecular target: the molecule itself
Assay: crystal structure

Row | Protein | stoichiometry N
1 | ketosteroid isomerase (KSI) Y57F/D40N (enzyme, Pseudomonas putida) LPTAQEVQGLMARYIELVDVGDIEAIVQMYADDATVENPFGQPPIHGREQIAAFFRQGLGGGKVRACLTGPVRASHNGCGAMPFRVEMVWNGQPCALDVIDVMRFDEHGRIQTMQAYWSEVNLSVREPQ | 2
2 | ketosteroid isomerase (KSI) Y32F/Y57F (enzyme, Pseudomonas putida) MNLPTAQEVQGLMARYIELVDVGDIEAIVQMFADDATVEDPFGQPPIHGREQIAAFFRQGLGGGKVRACLTGPVRASHNGCGAMPFRVEMVWNGQPCALDVIDVMRFDEHGRIQTMQAYWSEVNLSVREPQ | 2
3 | ketosteroid isomerase (KSI) Y57F (enzyme, Pseudomonas putida) MNLPTAQEVQGLMARYIELVDVGDIEAIVQMYADDATVEDPFGQPPIHGREQIAAFFRQGLGGGKVRACLTGPVRASHNGCGAMPFRVEMVWNGQPCALDVIDVMRFDEHGRIQTMQAYWSEVNLSVREPQ | 2
